# Measurements from publication doi:10.1101/291294 (bioRxiv, 2018).
# B1: GST-tagged human GABARAP (natural protein)
# chain: MKFVYKEEHPFEKRRSEGEKIRKKYPDRVPVIVEKAPKARIGDLDKKKYLVPSDLTVGQFYFLIRKRIHLRAEDALFFFVNNVIPPTSATMGQLYQEHHEEDFFLYIAYSDESVYGL
# Key:
# [1] = molecular target: Recombinant WT XIAP protein (human, UniProt P98170 1-497); test: pull-down
# [2] = molecular target: B1; test: pull-down
# Recombinant WT XIAP protein, sequence (P98170 whole entry): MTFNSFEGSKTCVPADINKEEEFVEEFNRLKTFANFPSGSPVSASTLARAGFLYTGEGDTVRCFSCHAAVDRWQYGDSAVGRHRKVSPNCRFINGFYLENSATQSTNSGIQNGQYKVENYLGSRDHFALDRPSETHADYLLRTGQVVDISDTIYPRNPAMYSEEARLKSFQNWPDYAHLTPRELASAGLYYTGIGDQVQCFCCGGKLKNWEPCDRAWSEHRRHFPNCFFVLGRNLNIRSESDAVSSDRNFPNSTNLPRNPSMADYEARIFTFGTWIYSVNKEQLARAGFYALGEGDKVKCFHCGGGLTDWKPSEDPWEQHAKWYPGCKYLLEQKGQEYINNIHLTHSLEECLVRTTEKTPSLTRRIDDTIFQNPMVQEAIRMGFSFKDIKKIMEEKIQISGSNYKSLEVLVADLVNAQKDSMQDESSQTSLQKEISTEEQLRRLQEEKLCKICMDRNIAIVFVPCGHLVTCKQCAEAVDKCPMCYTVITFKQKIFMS
Binder,binding result [1],binding result [2]
B1,binds,
EDEWVNVQY [GIM-containing peptide EDEWVNVQY],,binds
